Measured values as given in patent publication US20230292718A1, “METHOD FOR CONSTRUCTING MODEL OF VITILIGO AND THE USE OF THE MODEL” (NATIONAL INSTITUTE OF BIOLOGICAL SCIENCES, BEIJING, priority 2020, published 2023).

B1: CCL19: recombinant chemokine protein added to lower chamber of transwell (protein, UniProt O70460 26-108, looked up)
C-C motif chemokine 19: GANDAEDCCLSVTQRPIPGNIVKAFRYLLNEDGCRVPAVVFTTLRGYQLCAPPDQPWVDRIIRRLKKSSAKNKGNSTRRSPVS
B2: CXCL9: recombinant chemokine protein added to lower chamber of transwell (protein, UniProt P18340 22-126, looked up)
C-X-C motif chemokine 9: TLVIRNARCSCISTSRGTIHYKSLKDLKQFAPSPNCNKTEIIATLKNGDQTCLDPDSANVKKLMKEWEKKISQKKKQKRGKKHQKNMKNRKPKTPQSRRRSRKTT
B3: IFN-γ: recombinant interferon gamma used to treat fibroblasts in vitro (protein, UniProt P01580 23-155, looked up)
Interferon gamma: HGTVIESLESLNNYFNSSGIDVEEKSLFLDIWRNWQKDGDMKILQSQIISFYLRLFEVLKDNQAISNNISVIESHLITTFFSNSKAKKDAFMSIAKFEVNNPQVQRQAFNELIRVVHQLLPESSLRKRKRSRC
B4: CXCL10: recombinant chemokine protein added to lower chamber of transwell (protein, UniProt P17515 22-98, looked up)
C-X-C motif chemokine 10: IPLARTVRCNCIHIDDGPVRMRAIGKLEIIPASLSCPRVEIIATMKKNDEQRCLNPESKTIKNLMKAFSQKRSKRAP

Assays:
[1] = test system: activated CD8+OT1 T cells; test: T cell transwell migration assay with recombinant chemokines; assay type: cell-based, mouse; conditions: recombinant protein at increasing concentrations in lower chamber, 3 hr incubation
Protocol: Transwell migration of lymphocytes was performed with mature CTLs and concentrated fibroblast conditioned medium. In brief, splenocytes isolated from OT-1 mice were stimulated with OVA257-264 for 3 days in the presence of 10 ng/mL IL2. Cells were centrifuged and cultured in fresh medium containing 10 ng/mL IL2 for 1 more day, after which most of the cells in the culture were CTLs. To measure CD8+ T cell cytotoxicity, B16F10 expressing OVA peptide was mixed in the killing medium at the ratios of 1:1. After 6 hs, the cytotoxic efficiency was confirmed by B16F10 cell survival.
To further identify the secreted factors involved in this process, we first performed RNA-seq analysis of fibroblasts from WT and IFNGR1 KO mice at Day 33 after vitiligo induction, alongside WT mice without vitiligo induction (FIG. 6C). […] Next we compared the single cell transcriptome data of progressive state vitiligo patients fibroblasts and healthy donors fibroblasts. Unsupervised clustering performed by spectral clustering method separates fibroblasts into 4 sub-clusters in healthy donors and 5 sub-clusters in progressive state vitiligo patients (FIG. 6D). […] Comparison of the human and mouse vitiligo fibroblasts specific secreted protein gene signatures, we identified 29 overlapped genes. Among them 11 are conserved major histocompatibility complex genes and 6 are chemokines, including CCL5, CCL8, CCL19, CXCL3, CXCL9 and CXCL10 (FIG. 6F-6G). […]
RFP expressing WT or IFNGR1 KO fibroblasts were intradermally injected into the tail skin of IFNGR1 KO mice. After vitiligo induction on the host mice, CD8+ T cell infiltration was analyzed by whole-mount immunofluorescent staining and quantification. […] Cells were collected from both chambers and counted by flow cytometry after 3 hr incubation. […] After 3 hr incubation, CD8+ T cell migration index was calculated by dividing the number of migrated cells (cells in lower chamber) using the number of migrated plus unmigrated cells (cells in upper chamber+lower chamber).

[2] = test system: primary mouse fibroblasts; test: QPCR analysis of IFN-γ treated primary fibroblasts using target gene CXCL10 as readout; assay type: cell-based
Protocol: Total RNAs were isolated from FACS-sorted cells with Trizol followed by extraction using Direct-Zol RNA mini-prep Kit (Zymo research). For cDNA synthesis, equal amounts of RNA were reverse-transcribed by Oligo-dT (Vazyme, R222-01). Expression levels were normalized to the expression of PPIB. Real time PCR was conducted using a CFX96TM Real-Time system (Bio-RAD) with Power SYBRR Green PCR Master Mix (Life Technologies). All primer pairs were designed for the same cycling conditions: 10 min at 95° C. for initial denaturing, 40 cycles of 10 s at 95° C. for denaturing, 30 s at 62° C. for annealing, and 10 s at 65° C. for extension. The primers were designed to produce a product spanning exon-intron boundary in each of the target genes.
Primary fibroblasts isolated from WT or IFNGR1 KO newborn mice dorsal skin were infected with lentivirus expressing shRNA and RFP in vitro. The RFP+ fibroblasts were then intradermally injected into P56 mice tail skin. The presence and location of injected cells were examined 2 weeks later. […] Primary mouse fibroblasts were treated with IFN-γ of increasing dosage and duration time in vitro. Treatment time ranges from 6 hrs to 48 hrs; and IFN-γ concentration gradients range from 5 U/mL to 200 U/mL. […] Primary mouse fibroblasts were treated with increasing dosage of IFN-γ for 6 hrs in vitro. IFN-γ concentration gradients range from 5 U/mL to 1000 U/mL. […]

3T3 fibroblasts = test: qPCR analysis of shRNA effect in blocking IFN-γ response (GBP2 reporter); assay type: cell-based, mouse; conditions: 6 hrs IFN-γ treatment, cells expressing scrambled shRNA

| Molecule | CD8+ T cell migration (migration index) [1] | IFN-γ concentration inducing maximum activation (CXCL10 expression level) ([2]; 6 hrs in vitro, gradient 5 U/mL to 1000 U/mL) [U/mL] | CXCL10 expression ([2]; IFN-γ 5 U/mL to 200 U/mL, 6 hrs to 48 hrs) | GBP2 expression level (3T3 fibroblasts) |
| --- | --- | --- | --- | --- |
| B1 | induce CD8+ T cell migration in a dosage dependent manner |  |  |  |
| B2 | induce CD8+ T cell migration in a dosage dependent manner |  |  |  |
| B3 |  | 1000 | induced by IFN-γ in a dosage dependent manner | significantly increased |
| B4 | induce CD8+ T cell migration in a dosage dependent manner |  |  |  |
